The source of these data is US20230104769A1 (MABWELL SHANGHAI BIOSCIENCE, published 2023).

Sequences and labels used below:
B1: h317 variant antibody, heavy chain D33S (antibody, V domains shown)
VH: EVQLVESGGGLVKPGGSLRLSCAASGFTFSSYSMSWVRQAPGKGLEWVATISGGGSYTYYPDSVKGRFTISRDNAKNSLYLQMNSLRAEDTAVYYCASPDSSGVAYWGQGTLVTVSS
VL: DIVMTQSPLSLPVTPGEPASITCKASQDVETVVAWYLQKPGQSPRLLIYWASTRHTGVPDRFSGSGSGTDFTLKISRVEAEDVGVYYCQQYSRYPWTFGQGTKL
notes: Variant of h317
B2: h317 variant antibody, heavy chain S52K (antibody, V domains shown)
VH: EVQLVESGGGLVKPGGSLRLSCAASGFTFSSYDMSWVRQAPGKGLEWVATIKGGGSYTYYPDSVKGRFTISRDNAKNSLYLQMNSLRAEDTAVYYCASPDSSGVAYWGQGTLVTVSS
VL: DIVMTQSPLSLPVTPGEPASITCKASQDVETVVAWYLQKPGQSPRLLIYWASTRHTGVPDRFSGSGSGTDFTLKISRVEAEDVGVYYCQQYSRYPWTFGQGTKL
notes: Variant of h317
B3: h317 variant antibody, heavy chain Y32N (antibody, V domains shown)
VH: EVQLVESGGGLVKPGGSLRLSCAASGFTFSSNDMSWVRQAPGKGLEWVATISGGGSYTYYPDSVKGRFTISRDNAKNSLYLQMNSLRAEDTAVYYCASPDSSGVAYWGQGTLVTVSS
VL: DIVMTQSPLSLPVTPGEPASITCKASQDVETVVAWYLQKPGQSPRLLIYWASTRHTGVPDRFSGSGSGTDFTLKISRVEAEDVGVYYCQQYSRYPWTFGQGTKL
notes: Variant of h317
B4: h317 variant antibody, heavy chain S31D (antibody, V domains shown)
VH: EVQLVESGGGLVKPGGSLRLSCAASGFTFSDYDMSWVRQAPGKGLEWVATISGGGSYTYYPDSVKGRFTISRDNAKNSLYLQMNSLRAEDTAVYYCASPDSSGVAYWGQGTLVTVSS
VL: DIVMTQSPLSLPVTPGEPASITCKASQDVETVVAWYLQKPGQSPRLLIYWASTRHTGVPDRFSGSGSGTDFTLKISRVEAEDVGVYYCQQYSRYPWTFGQGTKL
notes: Variant of h317
B5: h317 variant antibody, heavy chain D33Y (antibody, V domains shown)
VH: EVQLVESGGGLVKPGGSLRLSCAASGFTFSSYYMSWVRQAPGKGLEWVATISGGGSYTYYPDSVKGRFTISRDNAKNSLYLQMNSLRAEDTAVYYCASPDSSGVAYWGQGTLVTVSS
VL: DIVMTQSPLSLPVTPGEPASITCKASQDVETVVAWYLQKPGQSPRLLIYWASTRHTGVPDRFSGSGSGTDFTLKISRVEAEDVGVYYCQQYSRYPWTFGQGTKL
notes: Variant of h317
B6: h317 variant antibody, heavy chain G53S (antibody, V domains shown)
VH: EVQLVESGGGLVKPGGSLRLSCAASGFTFSSYDMSWVRQAPGKGLEWVATISSGGSYTYYPDSVKGRFTISRDNAKNSLYLQMNSLRAEDTAVYYCASPDSSGVAYWGQGTLVTVSS
VL: DIVMTQSPLSLPVTPGEPASITCKASQDVETVVAWYLQKPGQSPRLLIYWASTRHTGVPDRFSGSGSGTDFTLKISRVEAEDVGVYYCQQYSRYPWTFGQGTKL
notes: Variant of h317
B7: h317 variant antibody, heavy chain G53Y (antibody, V domains shown)
VH: EVQLVESGGGLVKPGGSLRLSCAASGFTFSSYDMSWVRQAPGKGLEWVATISYGGSYTYYPDSVKGRFTISRDNAKNSLYLQMNSLRAEDTAVYYCASPDSSGVAYWGQGTLVTVSS
VL: DIVMTQSPLSLPVTPGEPASITCKASQDVETVVAWYLQKPGQSPRLLIYWASTRHTGVPDRFSGSGSGTDFTLKISRVEAEDVGVYYCQQYSRYPWTFGQGTKL
notes: Variant of h317
B8: h317 variant antibody, heavy chain S52W (antibody, V domains shown)
VH: EVQLVESGGGLVKPGGSLRLSCAASGFTFSSYDMSWVRQAPGKGLEWVATIWGGGSYTYYPDSVKGRFTISRDNAKNSLYLQMNSLRAEDTAVYYCASPDSSGVAYWGQGTLVTVSS
VL: DIVMTQSPLSLPVTPGEPASITCKASQDVETVVAWYLQKPGQSPRLLIYWASTRHTGVPDRFSGSGSGTDFTLKISRVEAEDVGVYYCQQYSRYPWTFGQGTKL
notes: Variant of h317
B9: h317 variant antibody, heavy chain D33S and Y59A (antibody, V domains shown)
VH: EVQLVESGGGLVKPGGSLRLSCAASGFTFSSYSMSWVRQAPGKGLEWVATISGGGSYTAYPDSVKGRFTISRDNAKNSLYLQMNSLRAEDTAVYYCASPDSSGVAYWGQGTLVTVSS
VL: DIVMTQSPLSLPVTPGEPASITCKASQDVETVVAWYLQKPGQSPRLLIYWASTRHTGVPDRFSGSGSGTDFTLKISRVEAEDVGVYYCQQYSRYPWTFGQGTKL
notes: Variant of h317; also called 33S(CDRH 59A(CDR2))
B10: h317 variant antibody, heavy chain G55S (antibody, V domains shown)
VH: EVQLVESGGGLVKPGGSLRLSCAASGFTFSSYDMSWVRQAPGKGLEWVATISGGSSYTYYPDSVKGRFTISRDNAKNSLYLQMNSLRAEDTAVYYCASPDSSGVAYWGQGTLVTVSS
VL: DIVMTQSPLSLPVTPGEPASITCKASQDVETVVAWYLQKPGQSPRLLIYWASTRHTGVPDRFSGSGSGTDFTLKISRVEAEDVGVYYCQQYSRYPWTFGQGTKL
notes: Variant of h317
B11: h317 variant antibody, heavy chain G54S (antibody, V domains shown)
VH: EVQLVESGGGLVKPGGSLRLSCAASGFTFSSYDMSWVRQAPGKGLEWVATISGSGSYTYYPDSVKGRFTISRDNAKNSLYLQMNSLRAEDTAVYYCASPDSSGVAYWGQGTLVTVSS
VL: DIVMTQSPLSLPVTPGEPASITCKASQDVETVVAWYLQKPGQSPRLLIYWASTRHTGVPDRFSGSGSGTDFTLKISRVEAEDVGVYYCQQYSRYPWTFGQGTKL
notes: Variant of h317
B12: h317 variant antibody, heavy chain S56G (antibody, V domains shown)
VH: EVQLVESGGGLVKPGGSLRLSCAASGFTFSSYDMSWVRQAPGKGLEWVATISGGGGYTYYPDSVKGRFTISRDNAKNSLYLQMNSLRAEDTAVYYCASPDSSGVAYWGQGTLVTVSS
VL: DIVMTQSPLSLPVTPGEPASITCKASQDVETVVAWYLQKPGQSPRLLIYWASTRHTGVPDRFSGSGSGTDFTLKISRVEAEDVGVYYCQQYSRYPWTFGQGTKL
notes: Variant of h317
B13: h317 variant antibody, heavy chain D100Y (antibody, V domains shown)
VH: EVQLVESGGGLVKPGGSLRLSCAASGFTFSSYDMSWVRQAPGKGLEWVATISGGGSYTYYPDSVKGRFTISRDNAKNSLYLQMNSLRAEDTAVYYCASPYSSGVAYWGQGTLVTVSS
VL: DIVMTQSPLSLPVTPGEPASITCKASQDVETVVAWYLQKPGQSPRLLIYWASTRHTGVPDRFSGSGSGTDFTLKISRVEAEDVGVYYCQQYSRYPWTFGQGTKL
notes: Variant of h317
B14: h317 variant antibody, heavy chain D33S and G54S (antibody, V domains shown)
VH: EVQLVESGGGLVKPGGSLRLSCAASGFTFSSYSMSWVRQAPGKGLEWVATISGSGSYTYYPDSVKGRFTISRDNAKNSLYLQMNSLRAEDTAVYYCASPDSSGVAYWGQGTLVTVSS
VL: DIVMTQSPLSLPVTPGEPASITCKASQDVETVVAWYLQKPGQSPRLLIYWASTRHTGVPDRFSGSGSGTDFTLKISRVEAEDVGVYYCQQYSRYPWTFGQGTKL
notes: Variant of h317; also called 33S(CDR1) 54S(CDR2)
B15: h317 variant antibody, heavy chain Y59A (antibody, V domains shown)
VH: EVQLVESGGGLVKPGGSLRLSCAASGFTFSSYDMSWVRQAPGKGLEWVATISGGGSYTAYPDSVKGRFTISRDNAKNSLYLQMNSLRAEDTAVYYCASPDSSGVAYWGQGTLVTVSS
VL: DIVMTQSPLSLPVTPGEPASITCKASQDVETVVAWYLQKPGQSPRLLIYWASTRHTGVPDRFSGSGSGTDFTLKISRVEAEDVGVYYCQQYSRYPWTFGQGTKL
notes: Variant of h317
B16: h317 variant antibody, heavy chain D100E (antibody, V domains shown)
VH: EVQLVESGGGLVKPGGSLRLSCAASGFTFSSYDMSWVRQAPGKGLEWVATISGGGSYTYYPDSVKGRFTISRDNAKNSLYLQMNSLRAEDTAVYYCASPESSGVAYWGQGTLVTVSS
VL: DIVMTQSPLSLPVTPGEPASITCKASQDVETVVAWYLQKPGQSPRLLIYWASTRHTGVPDRFSGSGSGTDFTLKISRVEAEDVGVYYCQQYSRYPWTFGQGTKL
notes: Variant of h317
B17: h317 variant antibody, heavy chain Y32A (antibody, V domains shown)
VH: EVQLVESGGGLVKPGGSLRLSCAASGFTFSSADMSWVRQAPGKGLEWVATISGGGSYTYYPDSVKGRFTISRDNAKNSLYLQMNSLRAEDTAVYYCASPDSSGVAYWGQGTLVTVSS
VL: DIVMTQSPLSLPVTPGEPASITCKASQDVETVVAWYLQKPGQSPRLLIYWASTRHTGVPDRFSGSGSGTDFTLKISRVEAEDVGVYYCQQYSRYPWTFGQGTKL
notes: Variant of h317
B18: h317 variant antibody, heavy chain S101A (antibody, V domains shown)
VH: EVQLVESGGGLVKPGGSLRLSCAASGFTFSSYDMSWVRQAPGKGLEWVATISGGGSYTYYPDSVKGRFTISRDNAKNSLYLQMNSLRAEDTAVYYCASPDASGVAYWGQGTLVTVSS
VL: DIVMTQSPLSLPVTPGEPASITCKASQDVETVVAWYLQKPGQSPRLLIYWASTRHTGVPDRFSGSGSGTDFTLKISRVEAEDVGVYYCQQYSRYPWTFGQGTKL
notes: Variant of h317
B19: h317 variant antibody, heavy chain G54S and Y59A (antibody, V domains shown)
VH: EVQLVESGGGLVKPGGSLRLSCAASGFTFSSYDMSWVRQAPGKGLEWVATISGSGSYTAYPDSVKGRFTISRDNAKNSLYLQMNSLRAEDTAVYYCASPDSSGVAYWGQGTLVTVSS
VL: DIVMTQSPLSLPVTPGEPASITCKASQDVETVVAWYLQKPGQSPRLLIYWASTRHTGVPDRFSGSGSGTDFTLKISRVEAEDVGVYYCQQYSRYPWTFGQGTKL
notes: Variant of h317; also called 54S(CDR2) 59A(CDR2)
B20: h317 variant antibody, heavy chain Y57T (antibody, V domains shown)
VH: EVQLVESGGGLVKPGGSLRLSCAASGFTFSSYDMSWVRQAPGKGLEWVATISGGGSTTYYPDSVKGRFTISRDNAKNSLYLQMNSLRAEDTAVYYCASPDSSGVAYWGQGTLVTVSS
VL: DIVMTQSPLSLPVTPGEPASITCKASQDVETVVAWYLQKPGQSPRLLIYWASTRHTGVPDRFSGSGSGTDFTLKISRVEAEDVGVYYCQQYSRYPWTFGQGTKL
notes: Variant of h317
B21: h317 variant antibody, heavy chain G54D (antibody, V domains shown)
VH: EVQLVESGGGLVKPGGSLRLSCAASGFTFSSYDMSWVRQAPGKGLEWVATISGDGSYTYYPDSVKGRFTISRDNAKNSLYLQMNSLRAEDTAVYYCASPDSSGVAYWGQGTLVTVSS
VL: DIVMTQSPLSLPVTPGEPASITCKASQDVETVVAWYLQKPGQSPRLLIYWASTRHTGVPDRFSGSGSGTDFTLKISRVEAEDVGVYYCQQYSRYPWTFGQGTKL
notes: Variant of h317

For orientation: Kd means the constant that tells how readily two partners part at equilibrium.

T1 sequence (Q15116 21-167 limits assumed, form in doubt): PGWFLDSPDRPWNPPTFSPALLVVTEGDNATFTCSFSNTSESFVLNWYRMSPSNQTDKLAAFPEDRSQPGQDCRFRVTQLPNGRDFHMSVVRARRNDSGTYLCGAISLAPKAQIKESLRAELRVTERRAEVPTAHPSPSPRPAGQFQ

The test concerns the target T1, recombinant human PD-1 protein (NCBI accession No.: NP_005009.2, 21aa-167aa) (human, UniProt Q15116 21-167).
T1 construct: range 21-167; also called recombinant human PD-1 extracellular domain protein; PD-1-ECD
As to the kind of experiment: BLI Octet QKe, antibody on the sensor, single 100 nM PD-1. The method, then: Determination of the binding kinetics: the affinity of the antibody was determined with Octet QKe system from Fortebio using an assay of capturing biotin-labeled antibody with streptavidin. […] Both the binding and dissociating were conducted for 300 s.
The comparison of affinity between the variant antibodies and the parent antibody was performed using Octet QKe system supplied by Fortebio.
With B1, the Kd worked out at 2.89 nM.

As for B2, the Kd stood at 27.2 nM.

Regarding B3, the Kd was found to be 18.1 nM.

As to B4, the Kd worked out at 5.12 nM.

Regarding B5, the Kd is 236 nM.

With B6, the Kd amounted to 5.53 nM.

On to B7, for which the dissociation constant Kd was found to be 10.3 nM.

For the molecule B8, the Kd came out at 39.4 nM.

Take B9: the Kd came to 3.96 nM.

As to B10, the Kd was found to be 9.09 nM.

Consider B11, for which the Kd worked out at 1.32 nM.

Take B12: the Kd came out at 148 nM.

As to B13, the Kd came out at 8.23 nM.

With B14, the Kd is 3.12 nM.

As to B15, the Kd worked out at 3.29 nM.

For B16, the equilibrium dissociation constant (Kd) is 74.4 nM.

As for B17, the Kd worked out at 6.83 nM.

Regarding B18, the Kd was found to be 16.3 nM.

As to B19, the Kd was 2.68 nM.

As for B20, the Kd was found to be 61.2 nM.

For the molecule B21, the Kd came to 29.3 nM.
